{
  "source": "paper doi:10.1101/2022.01.03.474807",
  "key": {"[1]": {"biological_target": "human melanocortin-4 receptor (human) (UniProt P32245)", "sequence (P32245 whole entry)": "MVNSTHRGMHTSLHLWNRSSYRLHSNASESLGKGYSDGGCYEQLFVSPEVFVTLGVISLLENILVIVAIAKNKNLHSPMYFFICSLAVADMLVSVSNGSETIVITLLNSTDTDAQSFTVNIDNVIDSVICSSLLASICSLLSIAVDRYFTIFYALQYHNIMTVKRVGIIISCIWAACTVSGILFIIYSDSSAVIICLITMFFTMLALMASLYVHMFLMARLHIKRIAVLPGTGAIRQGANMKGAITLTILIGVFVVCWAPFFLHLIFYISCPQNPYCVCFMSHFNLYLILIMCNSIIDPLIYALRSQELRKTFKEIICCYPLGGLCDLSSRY"}, "[2]": {"biological_target": "human melanocortin-1 receptor (human) (UniProt Q01726)", "sequence (Q01726 whole entry)": "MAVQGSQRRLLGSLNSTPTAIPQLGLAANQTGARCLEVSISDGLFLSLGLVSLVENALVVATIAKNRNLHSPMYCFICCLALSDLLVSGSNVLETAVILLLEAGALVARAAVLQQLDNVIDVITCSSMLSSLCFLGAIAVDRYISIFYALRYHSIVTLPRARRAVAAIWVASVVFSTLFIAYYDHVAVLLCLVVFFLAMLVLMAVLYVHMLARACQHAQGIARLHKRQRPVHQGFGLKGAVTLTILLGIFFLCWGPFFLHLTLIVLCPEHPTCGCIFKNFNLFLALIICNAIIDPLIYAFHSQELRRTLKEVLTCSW"}, "[3]": {"biological_target": "human melanocortin-3 receptor (human) (UniProt P41968)", "sequence (P41968 whole entry)": "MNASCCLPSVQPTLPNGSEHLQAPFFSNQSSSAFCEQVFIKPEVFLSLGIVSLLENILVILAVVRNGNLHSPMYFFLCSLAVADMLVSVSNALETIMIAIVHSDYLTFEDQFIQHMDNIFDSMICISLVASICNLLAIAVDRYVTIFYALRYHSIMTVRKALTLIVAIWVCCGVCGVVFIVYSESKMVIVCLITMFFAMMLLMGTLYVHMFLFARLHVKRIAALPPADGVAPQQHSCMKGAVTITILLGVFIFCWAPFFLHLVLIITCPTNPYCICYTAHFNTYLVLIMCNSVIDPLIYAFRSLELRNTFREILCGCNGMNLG"}, "[4]": {"biological_target": "human melanocortin-5 receptor (human) (UniProt P33032)", "sequence (P33032 whole entry)": "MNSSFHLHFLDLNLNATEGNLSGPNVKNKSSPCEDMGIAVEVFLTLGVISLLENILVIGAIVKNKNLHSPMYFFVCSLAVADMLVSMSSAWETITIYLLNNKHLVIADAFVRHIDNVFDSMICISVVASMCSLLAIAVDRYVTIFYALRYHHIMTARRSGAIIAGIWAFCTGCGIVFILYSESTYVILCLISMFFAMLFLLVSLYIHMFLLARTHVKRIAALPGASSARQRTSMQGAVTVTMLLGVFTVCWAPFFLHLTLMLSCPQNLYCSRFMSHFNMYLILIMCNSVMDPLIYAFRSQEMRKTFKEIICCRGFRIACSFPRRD"}},
  "data": [
    {"substance": "α-melanocyte-stimulating hormone (ligand)", "values": [
      {"measurement": "EC90 of the cAMP response (split-luciferase cAMP sensor)", "setting": "[1]", "result": 70, "unit": "nM"},
      {"measurement": "EC90 of the cAMP response (split-luciferase cAMP sensor)", "setting": "[2]", "result": 10, "unit": "nM"},
      {"measurement": "EC90 of the cAMP response (split-luciferase cAMP sensor)", "setting": "[3]", "result": 30, "unit": "nM"},
      {"measurement": "EC90 of the cAMP response (split-luciferase cAMP sensor)", "setting": "[4]", "result": 500, "unit": "nM"}
    ]}
  ]
}
